Reference: IntAct's records for PubMed 31515488

B1: Lymphokine-activated killer T-cell-originated protein kinase (Homo sapiens), Q96KB5 (parent)
chain: MEGISNFKTPSKLSEKKKSVLCSTPTINIPASPFMQKLGFGTGVNVYLMKRSPRGLSHSPWAVKKINPICNDHYRSVYQKRLMDEAKILKSLHHPNIVGYRAFTEANDGSLCLAMEYGGEKSLNDLIEERYKASQDPFPAAIILKVALNMARGLKYLHQEKKLLHGDIKSSNVVIKGDFETIKICDVGVSLPLDENMTVTDPEACYIGTEPWKPKEAVEENGVITDKADIFAFGLTLWEMMTLSIPHINLSNDDDDEDKTFDESDFDDEAYYAALGTRPPINMEELDESYQKVIELFSVCTNEDPKDRPSAAHIVEALETDV
partner: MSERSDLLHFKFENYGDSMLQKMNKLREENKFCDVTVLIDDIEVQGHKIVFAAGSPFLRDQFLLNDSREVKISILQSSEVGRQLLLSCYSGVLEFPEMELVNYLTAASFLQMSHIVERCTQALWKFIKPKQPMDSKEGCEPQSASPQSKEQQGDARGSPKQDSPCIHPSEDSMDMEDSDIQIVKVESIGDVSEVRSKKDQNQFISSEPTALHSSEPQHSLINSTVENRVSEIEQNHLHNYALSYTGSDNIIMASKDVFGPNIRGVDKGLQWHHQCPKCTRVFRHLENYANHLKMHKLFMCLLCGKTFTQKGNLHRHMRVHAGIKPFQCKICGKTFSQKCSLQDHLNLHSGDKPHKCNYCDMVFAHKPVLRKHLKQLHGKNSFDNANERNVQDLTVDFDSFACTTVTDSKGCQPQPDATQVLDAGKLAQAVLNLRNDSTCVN
B2: Cilium assembly protein DZIP1L (Homo sapiens), Q8IYY4 (parent)
chain: MQSPAATAEGLSGPLFGAYTFPTFKFQPRHDSMDWRRISTLDVDRVARELDVATLQENIAGITFCNLDREVCSRCGQPVDPALLKVLRLAQLIIEYLLHCQDCLSASVAQLEARLQTSLGQQQRGQQELGRQADELKGVREESRRRRKMISTLQQLLMQTGTHSYHTCHLCDKTFMNATFLRGHIQRRHAGVAEGGKQKKQEQPVEEVLEELRAKLKWTQGELEAQREAERQRQLQEAELIHQREIEAKKEFDKWKEQEWTKLYGEIDKLKKLFWDEFKNVAKQNSTLEEKLRALQSHSVMESKLGSLRDEESEEWLRQARELQALREKTEIQKTEWKRKVKELHEEHMAEKKELQEENQRLQASLSQDQKKAAAQSQCQISTLRAQLQEQARIIASQEEMIQSLSLRKVEGIHKVPKAVDTEEDSPEEEMEDSQDEQHKVLAALRRNPTLLKHFRPILEDTLEEKLESMGIRKDAKGISIQTLRHLESLLRVQREQKARKFSEFLSLRGKLVKEVTSRAKERQENGAVVSQPDGQPSVKSQQSTLVTREAQPKTRTLQVALPSTPAEPPPPTRQSHGSHGSSLTQVSAPAPRPGLHGPSSTPPSSGPGMSTPPFSSEEDSEGDRVQRVSLQPPKVPSRMVPRPKDDWDWSDTETSEENAQPPGQGSGTLVQSMVKNLEKQLEAPAKKPAGGVSLFFMPNAGPQRAATPGRKPQLSEDESDLEISSLEDLPLDLDQREKPKPLSRSKLPEKFGTGPQSSGQPRVPAW
B3: Transmembrane protein 79 (Homo sapiens), Q9BSE2 (parent)
chain: MTEQETLALLEVKRSDSPEKSSPQALVPNGRQPEGEGGAESPGAESLRVGSSAGSPTAIEGAEDGLDSTVSEAATLPWGTGPQPSAPFPDPPGWRDIEPEPPESEPLTKLEELPEDDANLLPEKAARAFVPIDLQCIERQPQEDLIVRCEAGEGECRTFMPPRVTHPDPTERKWAEAVVRPPGCSCGGCGSCGDREWLRAVASVGAALILFPCLLYGAYAFLPFDVPRLPTMSSRLIYTLRCGVFATFPIVLGILVYGLSLLCFSALRPFGEPRREVEIHRRYVAQSVQLFILYFFNLAVLSTYLPQDTLKLLPLLTGLFAVSRLIYWLTFAVGRSFRGFGYGLTFLPLLSMLMWNLYYMFVVEPERMLTATESRLDYPDHARSASDYRPRPWG
partner: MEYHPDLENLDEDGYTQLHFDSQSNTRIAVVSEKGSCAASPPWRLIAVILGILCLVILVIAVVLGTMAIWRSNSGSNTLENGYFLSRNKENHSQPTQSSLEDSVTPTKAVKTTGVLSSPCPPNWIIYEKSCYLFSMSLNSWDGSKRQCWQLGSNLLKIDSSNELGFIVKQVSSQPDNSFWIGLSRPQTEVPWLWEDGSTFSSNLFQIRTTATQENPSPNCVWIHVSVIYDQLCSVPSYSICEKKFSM
B4: Tuftelin-interacting protein 11 (Homo sapiens), Q9UBB9 (parent)
chain: MSLSHLYRDGEGRIDDDDDERENFEITDWDLQNEFNPNRQRHWQTKEEATYGVWAERDSDDERPSFGGKRARDYSAPVNFISAGLKKGAAEEAELEDSDDEEKPVKQDDFPKDFGPRKLKTGGNFKPSQKGFAGGTKSFMDFGSWERHTKGIGQKLLQKMGYVPGRGLGKNAQGIINPIEAKQRKGKGAVGAYGSERTTQSMQDFPVVDSEEEAEEEFQKELSQWRKDPSGSKKKPKYSYKTVEELKAKGRISKKLTAPQKELSQVKVIDMTGREQKVYYSYSQISHKHNVPDDGLPLQSQQLPQSGKEAKAPGFALPELEHNLQLLIDLTEQEIIQNDRQLQYERDMVVNLFHELEKMTEVLDHEERVISNLSKVLEMVEECERRMQPDCSNPLTLDECARIFETLQDKYYEEYRMSDRVDLAVAIVYPLMKEYFKEWDPLKDCTYGTEIISKWKSLLENDQLLSHGGQDLSADAFHRLIWEVWMPFVRNIVTQWQPRNCDPMVDFLDSWVHIIPVWILDNILDQLIFPKLQKEVENWNPLTDTVPIHSWIHPWLPLMQARLEPLYSPIRSKLSSALQKWHPSDSSAKLILQPWKDVFTPGSWEAFMVKNIVPKLGMCLGELVINPHQQHMDAFYWVIDWEGMISVSSLVGLLEKHFFPKWLQVLCSWLSNSPNYEEITKWYLGWKSMFSDQVLAHPSVKDKFNEALDIMNRAVSSNVGAYMQPGARENIAYLTHTERRKDFQYEAMQERREAENMAQRGIGVAASSVPMNFKDLIETKAEEHNIVFMPVIGKRHEGKQLYTFGRIVIYIDRGVVFVQGEKTWVPTSLQSLIDMAK
partner: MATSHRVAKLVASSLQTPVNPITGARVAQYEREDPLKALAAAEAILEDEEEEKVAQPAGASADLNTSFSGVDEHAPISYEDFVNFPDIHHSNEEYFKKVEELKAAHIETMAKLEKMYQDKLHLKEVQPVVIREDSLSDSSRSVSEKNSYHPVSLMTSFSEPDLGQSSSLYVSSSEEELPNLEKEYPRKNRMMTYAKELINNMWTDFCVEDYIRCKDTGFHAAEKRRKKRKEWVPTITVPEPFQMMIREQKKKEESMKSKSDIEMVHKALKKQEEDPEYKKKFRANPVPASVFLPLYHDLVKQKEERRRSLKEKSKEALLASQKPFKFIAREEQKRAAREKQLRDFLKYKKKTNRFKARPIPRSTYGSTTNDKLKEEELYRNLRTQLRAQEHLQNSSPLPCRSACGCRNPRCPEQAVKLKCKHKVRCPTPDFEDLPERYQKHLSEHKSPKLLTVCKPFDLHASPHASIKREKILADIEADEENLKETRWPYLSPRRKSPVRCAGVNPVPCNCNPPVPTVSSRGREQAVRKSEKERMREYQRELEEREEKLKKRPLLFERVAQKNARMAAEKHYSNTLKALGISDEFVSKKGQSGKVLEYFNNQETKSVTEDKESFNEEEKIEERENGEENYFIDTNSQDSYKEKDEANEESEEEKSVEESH
B5: Notch homolog 2 N-terminal-like protein A (Homo sapiens), Q7Z3S9 (parent)
chain: MCVTYHNGTGYCKCPEGFLGEYCQHRDPCEKNRCQNGGTCVAQAMLGKATCRCASGFTGEDCQYSTSHPCFVSRPCLNGGTCHMLSRDTYECTCQVGFTGKECQWTDACLSHPCANGSTCTTVANQFSCKCLTGFTGQKCETDVNECDIPGHCQHGGTCLNLPGSYQCQCLQGFTGQYCDSLYVPCAPSPCVNGGTCRQTGDFTFECNCLPETVRRGTELWERDREVWNGKEHDEN

Variants of: B1
Details: with zbt26_human ZBTB26, Q9HCK0

Question: Which “effect of a mutation on the interaction” value does the source give for N107S here?
Answer: disrupting interaction strength

Question: With E220D as the variant, how does the “effect of a mutation on the interaction” value read?
Answer: with no effect

Question: Which “effect of a mutation on the interaction” value does the source give for K87M here?
Answer: with no effect

Variants of: B2
Details: with cep76_human CEP76, Q8TAP6
Chain of cep76_human CEP76, Q8TAP6 (Q8TAP6 whole entry): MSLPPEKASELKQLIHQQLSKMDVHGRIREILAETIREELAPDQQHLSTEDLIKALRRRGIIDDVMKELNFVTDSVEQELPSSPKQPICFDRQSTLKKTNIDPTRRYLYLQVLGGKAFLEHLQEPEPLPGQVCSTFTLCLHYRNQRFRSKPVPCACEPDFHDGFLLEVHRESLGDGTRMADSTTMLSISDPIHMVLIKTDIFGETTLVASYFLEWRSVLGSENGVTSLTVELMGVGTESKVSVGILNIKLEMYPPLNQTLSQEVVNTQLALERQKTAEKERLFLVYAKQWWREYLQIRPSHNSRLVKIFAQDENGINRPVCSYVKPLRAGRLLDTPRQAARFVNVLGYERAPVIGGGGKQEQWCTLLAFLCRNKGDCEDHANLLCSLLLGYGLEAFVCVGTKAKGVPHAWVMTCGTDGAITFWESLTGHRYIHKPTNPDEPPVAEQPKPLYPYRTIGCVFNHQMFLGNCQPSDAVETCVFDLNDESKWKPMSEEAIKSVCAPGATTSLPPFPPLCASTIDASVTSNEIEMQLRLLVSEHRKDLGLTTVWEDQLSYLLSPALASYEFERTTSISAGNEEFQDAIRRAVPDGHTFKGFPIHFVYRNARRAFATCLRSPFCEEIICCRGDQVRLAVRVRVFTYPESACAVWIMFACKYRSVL

Question: How did the “effect of a mutation on the interaction” value turn out when G595E was run?
Answer: with no effect

Question: Which “effect of a mutation on the interaction” value does the source give for R625H here?
Answer: with no effect

Question: With R88C as the variant, how does the “effect of a mutation on the interaction” value read?
Answer: with no effect

Variants of: B3
Details: with clc7a_human CLEC7A

Question: With V322I as the variant, how does the “effect of a mutation on the interaction” value read?
Answer: with no effect

Variants of: B4
Details: with FAM161A

Question: S688L was tested. Which “effect of a mutation on the interaction” value did it give?
Answer: with no effect

Question: How did the “effect of a mutation on the interaction” value turn out when R8Q was run?
Answer: with no effect

Variants of: B5
Details: with pde9a_human PDE9A

Question: How did the “effect of a mutation on the interaction” value turn out when A115T was run?
Answer: with no effect

Variants of: B5
Details: with ppbi_human ALPI

Question: How did the “effect of a mutation on the interaction” value turn out when A115T was run?
Answer: with no effect

Variants of: B5
Details: with snai1_human SNAI1, O95863
Chain of snai1_human SNAI1, O95863 (O95863 whole entry): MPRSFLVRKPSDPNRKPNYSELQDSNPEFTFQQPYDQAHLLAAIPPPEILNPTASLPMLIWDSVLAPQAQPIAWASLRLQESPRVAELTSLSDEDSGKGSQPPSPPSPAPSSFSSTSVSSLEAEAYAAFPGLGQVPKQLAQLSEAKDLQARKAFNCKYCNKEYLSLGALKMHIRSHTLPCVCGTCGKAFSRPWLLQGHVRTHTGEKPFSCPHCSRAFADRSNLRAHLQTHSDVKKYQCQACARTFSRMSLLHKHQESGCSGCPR

Question: A115T was tested. Which “effect of a mutation on the interaction” value did it give?
Answer: with no effect

Variants of: B5
Details: with anfb_human NPPB

Question: For A115T, which “effect of a mutation on the interaction” value is on record?
Answer: with no effect

Variants of: B5
Details: with adck5_human ADCK5, Q3MIX3

Question: Which “effect of a mutation on the interaction” value does the source give for A115T here?
Answer: with no effect

Variants of: B5
Details: with catz_human CTSZ

Question: Which “effect of a mutation on the interaction” value does the source give for A115T here?
Answer: with no effect

Variants of: B5
Details: with txnd5_human TXNDC5, Q8NBS9

Question: How did the “effect of a mutation on the interaction” value turn out when A115T was run?
Answer: with no effect

Variants of: B5
Details: with trpv6_human TRPV6, Q9H1D0

Question: For A115T, which “effect of a mutation on the interaction” value is on record?
Answer: with no effect

Variants of: B5
Details: with ptn23_human PTPN23, Q9H3S7
Chain of ptn23_human PTPN23, Q9H3S7 (Q9H3S7 whole entry): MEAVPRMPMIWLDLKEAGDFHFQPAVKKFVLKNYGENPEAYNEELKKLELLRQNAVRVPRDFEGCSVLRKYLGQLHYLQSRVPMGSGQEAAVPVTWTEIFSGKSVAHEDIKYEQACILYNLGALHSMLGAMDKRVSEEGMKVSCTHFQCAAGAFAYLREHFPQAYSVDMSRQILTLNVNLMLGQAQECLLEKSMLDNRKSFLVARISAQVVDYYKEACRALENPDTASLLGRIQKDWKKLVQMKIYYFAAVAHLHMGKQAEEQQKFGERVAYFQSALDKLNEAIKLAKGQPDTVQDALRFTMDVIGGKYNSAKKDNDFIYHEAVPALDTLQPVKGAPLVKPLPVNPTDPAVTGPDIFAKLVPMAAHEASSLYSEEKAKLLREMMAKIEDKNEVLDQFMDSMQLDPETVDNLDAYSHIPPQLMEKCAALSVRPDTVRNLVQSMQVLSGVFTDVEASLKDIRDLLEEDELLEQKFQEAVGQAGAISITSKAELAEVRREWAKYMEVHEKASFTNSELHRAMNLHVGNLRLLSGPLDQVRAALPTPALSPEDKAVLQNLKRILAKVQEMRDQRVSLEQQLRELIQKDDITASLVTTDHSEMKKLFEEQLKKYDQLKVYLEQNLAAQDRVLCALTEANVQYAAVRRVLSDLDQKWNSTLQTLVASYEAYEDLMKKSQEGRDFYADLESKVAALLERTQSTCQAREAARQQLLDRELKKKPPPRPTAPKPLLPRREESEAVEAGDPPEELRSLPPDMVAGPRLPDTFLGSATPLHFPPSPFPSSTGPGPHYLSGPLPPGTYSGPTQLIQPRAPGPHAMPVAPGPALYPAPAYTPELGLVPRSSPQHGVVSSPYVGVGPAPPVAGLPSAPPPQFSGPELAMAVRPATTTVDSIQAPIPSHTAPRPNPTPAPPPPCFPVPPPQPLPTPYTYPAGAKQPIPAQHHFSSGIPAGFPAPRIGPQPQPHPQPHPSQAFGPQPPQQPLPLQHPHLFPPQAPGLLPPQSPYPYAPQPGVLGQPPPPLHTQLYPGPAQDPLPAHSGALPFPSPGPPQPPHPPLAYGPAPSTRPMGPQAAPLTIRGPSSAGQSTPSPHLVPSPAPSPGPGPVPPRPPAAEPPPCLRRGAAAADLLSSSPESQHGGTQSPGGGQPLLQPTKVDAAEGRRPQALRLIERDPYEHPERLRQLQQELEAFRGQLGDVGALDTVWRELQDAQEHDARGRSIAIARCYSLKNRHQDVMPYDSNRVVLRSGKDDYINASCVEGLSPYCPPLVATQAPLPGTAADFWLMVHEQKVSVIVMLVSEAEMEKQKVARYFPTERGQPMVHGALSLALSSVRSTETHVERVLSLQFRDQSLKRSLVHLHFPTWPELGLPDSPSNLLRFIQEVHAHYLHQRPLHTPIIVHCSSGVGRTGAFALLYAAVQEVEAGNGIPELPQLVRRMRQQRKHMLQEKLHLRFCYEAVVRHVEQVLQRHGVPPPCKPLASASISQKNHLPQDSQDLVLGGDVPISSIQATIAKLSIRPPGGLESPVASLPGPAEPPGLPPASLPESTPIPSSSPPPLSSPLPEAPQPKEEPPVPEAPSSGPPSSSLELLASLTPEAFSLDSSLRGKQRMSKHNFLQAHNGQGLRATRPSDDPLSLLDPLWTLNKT

Question: Which “effect of a mutation on the interaction” value does the source give for A115T here?
Answer: with no effect

Variants of: B5
Details: with gata2_human GATA2, P23769
Chain of gata2_human GATA2, P23769 (P23769 whole entry): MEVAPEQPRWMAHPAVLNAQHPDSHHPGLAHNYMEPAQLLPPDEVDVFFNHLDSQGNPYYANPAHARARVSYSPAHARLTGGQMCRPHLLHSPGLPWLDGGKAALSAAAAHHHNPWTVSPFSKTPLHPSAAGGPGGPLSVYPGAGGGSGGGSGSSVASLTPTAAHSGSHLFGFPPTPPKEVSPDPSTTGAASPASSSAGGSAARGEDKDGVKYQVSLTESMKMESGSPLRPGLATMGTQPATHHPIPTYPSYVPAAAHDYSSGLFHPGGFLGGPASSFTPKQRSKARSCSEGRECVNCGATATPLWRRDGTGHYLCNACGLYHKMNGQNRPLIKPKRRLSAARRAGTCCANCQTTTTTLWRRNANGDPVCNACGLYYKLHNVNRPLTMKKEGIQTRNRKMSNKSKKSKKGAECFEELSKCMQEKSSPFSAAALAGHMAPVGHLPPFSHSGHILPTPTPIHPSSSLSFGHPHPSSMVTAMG

Question: With A115T as the variant, how does the “effect of a mutation on the interaction” value read?
Answer: with no effect

Variants of: B5
Details: with hbaz_human HBZ

Question: Which “effect of a mutation on the interaction” value does the source give for A115T here?
Answer: with no effect

Variants of: B5
Details: with nect3_human NECTIN3, Q9NQS3
Chain of nect3_human NECTIN3, Q9NQS3 (Q9NQS3 whole entry, looked up): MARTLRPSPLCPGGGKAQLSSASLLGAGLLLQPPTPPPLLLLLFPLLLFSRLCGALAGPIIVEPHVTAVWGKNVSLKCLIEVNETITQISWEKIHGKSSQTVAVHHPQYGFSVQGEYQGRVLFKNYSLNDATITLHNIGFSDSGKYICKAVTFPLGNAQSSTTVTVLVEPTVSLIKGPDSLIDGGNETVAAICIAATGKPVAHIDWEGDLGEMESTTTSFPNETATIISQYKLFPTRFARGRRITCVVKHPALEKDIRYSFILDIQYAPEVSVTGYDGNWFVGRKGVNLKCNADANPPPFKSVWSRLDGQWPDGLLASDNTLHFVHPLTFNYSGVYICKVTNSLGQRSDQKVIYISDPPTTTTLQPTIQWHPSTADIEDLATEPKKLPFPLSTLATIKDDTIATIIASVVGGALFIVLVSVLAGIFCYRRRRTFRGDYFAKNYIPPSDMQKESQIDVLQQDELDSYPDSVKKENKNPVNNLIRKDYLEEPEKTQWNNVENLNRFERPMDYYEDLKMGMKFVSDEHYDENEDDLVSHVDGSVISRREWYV

Question: For A115T, which “effect of a mutation on the interaction” value is on record?
Answer: with no effect

Variants of: B5
Details: with itb2_human ITGB2, P05107
Chain of itb2_human ITGB2, P05107 (P05107 whole entry): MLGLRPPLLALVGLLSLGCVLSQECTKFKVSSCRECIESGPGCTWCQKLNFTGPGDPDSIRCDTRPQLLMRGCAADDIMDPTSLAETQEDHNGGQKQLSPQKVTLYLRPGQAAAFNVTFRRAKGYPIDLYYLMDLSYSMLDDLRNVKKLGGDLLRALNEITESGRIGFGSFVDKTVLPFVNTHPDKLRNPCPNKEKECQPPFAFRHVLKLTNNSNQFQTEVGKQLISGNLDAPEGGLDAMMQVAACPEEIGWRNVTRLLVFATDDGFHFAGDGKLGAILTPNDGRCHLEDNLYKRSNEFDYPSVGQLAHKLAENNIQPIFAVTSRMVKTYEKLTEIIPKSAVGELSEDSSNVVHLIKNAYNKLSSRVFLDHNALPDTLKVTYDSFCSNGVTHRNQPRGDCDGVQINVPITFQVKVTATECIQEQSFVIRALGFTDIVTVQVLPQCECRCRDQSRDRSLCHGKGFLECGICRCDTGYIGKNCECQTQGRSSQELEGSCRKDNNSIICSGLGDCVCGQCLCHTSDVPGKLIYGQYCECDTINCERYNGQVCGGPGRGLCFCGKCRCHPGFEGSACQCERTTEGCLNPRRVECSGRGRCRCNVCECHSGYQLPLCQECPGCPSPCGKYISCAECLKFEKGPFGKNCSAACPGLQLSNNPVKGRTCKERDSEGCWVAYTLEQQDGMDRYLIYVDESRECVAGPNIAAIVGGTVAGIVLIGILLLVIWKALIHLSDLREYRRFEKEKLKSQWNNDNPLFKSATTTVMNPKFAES

Question: For A115T, which “effect of a mutation on the interaction” value is on record?
Answer: with no effect

Variants of: B5
Details: with cd5r1_human CDK5R1, Q15078
Chain of cd5r1_human CDK5R1, Q15078 (Q15078 whole entry): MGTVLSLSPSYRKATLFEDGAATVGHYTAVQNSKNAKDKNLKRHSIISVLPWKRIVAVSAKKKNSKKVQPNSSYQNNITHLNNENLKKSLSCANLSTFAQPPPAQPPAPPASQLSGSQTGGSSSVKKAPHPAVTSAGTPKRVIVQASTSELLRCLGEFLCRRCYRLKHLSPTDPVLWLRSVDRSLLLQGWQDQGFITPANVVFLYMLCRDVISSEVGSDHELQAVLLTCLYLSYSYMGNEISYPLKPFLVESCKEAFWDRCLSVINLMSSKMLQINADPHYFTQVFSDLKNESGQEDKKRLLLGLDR

Question: How did the “effect of a mutation on the interaction” value turn out when A115T was run?
Answer: with no effect

Variants of: B5
Details: with uxt_human UXT

Question: A115T was tested. Which “effect of a mutation on the interaction” value did it give?
Answer: with no effect

Variants of: B5
Details: with yipf3_human YIPF3, Q9GZM5

Question: A115T was tested. Which “effect of a mutation on the interaction” value did it give?
Answer: with no effect

Variants of: B5
Details: with thms2_human THEMIS2, Q5TEJ8

Question: A115T was tested. Which “effect of a mutation on the interaction” value did it give?
Answer: with no effect

Variants of: B5
Details: with bmp7_human BMP7, P18075

Question: Which “effect of a mutation on the interaction” value does the source give for A115T here?
Answer: with no effect

Variants of: B5
Details: with cxcl5_human CXCL5, P42830
Chain of cxcl5_human CXCL5, P42830 (P42830 whole entry): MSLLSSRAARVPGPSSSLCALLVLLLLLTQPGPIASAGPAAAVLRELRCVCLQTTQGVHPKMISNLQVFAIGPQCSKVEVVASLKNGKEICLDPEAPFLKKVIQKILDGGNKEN

Question: Which “effect of a mutation on the interaction” value does the source give for A115T here?
Answer: with no effect
